This note sets out measurements from patent JP2000515494A.

Changes are numbered by the printed parent chain. Values joined by “and” are separate entries in the source; they are usually repeats but may differ in a detail not shown here. Equal values may be shown once.

The target in test [1] is 組換えヒトIL-5 (recombinant human interleukin-5) (human) (UniProt P05113). Briefly: cell-based or functional assay.
For test [2] the target is unchanged. Briefly: optical biosensor (BIAcore). A general note: SPR reads the build-up and loss of mass on a sensor chip optically.
The target in test [3] is hIL-5/IL-5レセプターα鎖複合体 (hIL-5 captured on IL-5RαFc) (human) (UniProt P05113). The experiment in a line: ELISA (europium fluorescence), IL-5RαFc on protein A + IL-5, mAb added; concentration 0 ng/ml. In general terms: ELISA stands for enzyme-linked immunosorbent assay.
The target is the same in test [4]. Briefly: ELISA (europium fluorescence), IL-5RαFc on protein A + IL-5, mAb added; concentration 2 ng/ml.
For test [5] the target is unchanged. The experiment in a line: ELISA (europium fluorescence), IL-5RαFc on protein A + IL-5, mAb added; concentration 8 ng/ml.
The target is the same in test [6]. The experiment in a line: ELISA (europium fluorescence), IL-5RαFc on protein A + IL-5, mAb added; concentration 32 ng/ml.
Test [7] deals with 組換えヒトIL-5 (recombinant human interleukin-5) (human) (UniProt P05113). Briefly: optical biosensor.
For test [8] the target is unchanged. Briefly: inhibition of 125I-IL-5 binding to IL-5Rα (Drosophila membranes), dose dependent.

B1: ネズミモノクローナル抗体2B6 (antibody, from another filing, V domains shown)
VH: QVQLKESGPGLVAPSQSLSITCTVSGFSLTSYSVHWVRQPPGKGLEWLGVIWASGGTDYNSALMSRLSISKDNSKSQVFLKLNSLQTDDTAMYYCARDPPSSLLRLDYWGQGTTLTVSS
VL: DIVMTQSPSSLSVSAGEKVTMSCKSSQSLLNSGNQKNYLAWYQQKPGQPPKLLIYGASTRESGVPDRFTGSGSGTDFTLSISSVQAEDLAVYYCQNVHSFPFTFGSGTELEIK
B1: the ネズミB13の増殖の阻害 (B13 proliferation assay) in test [1] is more than 70%. The Kd in test [2] is 0.022 nM and < 0.035 nM. Moreover, the 結合(個数) in test [3] is 2770 個数; in test [4] it was 2940 個数; in test [5] it was 3200 個数; in test [6], 4980 個数.

B2: mAb 2B6から由来のFab (recombinant 2B6 Fab, hexa-His) (Fab, from another filing, V domains shown)
VH: B1 VH
VL: B1 VL
B2: the Kd in test [7] is 0.09 nM. Also, in test [8], the IC50 came to 7.5 µg/mL.

B3: ネズミモノクローナル抗体2E3 (antibody, from another filing, mouse IgG2a, V domains shown)
VH: PGLVAPSQSLSITCTVSGFSLTSYSVHWVRQPPGKGLEWLGVIWASGGTDYNSALMSRLSISKDNSKSQVFLKLNSLQTDDAAMYYCARDPPFSLLRLDFWGQGTTLTVSS
VL: SSLSVSAGEKVTMSCKSSQSLLNSGNQKNYLAWYQQKPGQPPKLLIYGASTRESGVPDRFTGSGSGTDFTLTISSVQAEDLAVYYCQNDHSFPFTFGSGTELEIK
As to B3, the ネズミB13の増殖の阻害 (B13 proliferation assay) in test [1] is more than 70%. In test [2], the Kd is 0.02 nM and < 0.035 nM.

B4: ネズミモノクローナル抗体2F2 (antibody, from another filing, V domains shown)
VH: B3 VH with Q78R, A82T, F93S, F100Y
VL: B3 VL
On to B4, for which the ネズミB13の増殖の阻害 (B13 proliferation assay) in test [1] was more than 70%.

In general, Kd refers to the equilibrium constant for the complex coming apart. A word on the IC50: it is the concentration at which inhibition is half-maximal.
